The values below come from patent publication US20120184020A1, “ENGINEERED MICROORGANISMS WITH ENHANCED FERMENTATION ACTIVITY” (Verdezyne, Inc., priority 2009, published 2012).

B1: Psudomonas savastanoi: xylose isomerase from donor organism Psudomonas savastanoi (protein, UniProt Q48J73 1-438, looked up)
Xylose isomerase: MPYFPAVDKVRYEGPDSDSPLAFRHYDADKLILGKPMREHLRMAACYWHTFVWPGADMFGVGTFKRPWQGSGDPLELAIGKAETAFEFFSKLGIDYYSFHDTDVAPEGSSLKEYRNNFAQMIDQLERHQEQTGIKLLWGTANCFSNPRFAAGAASNPDPEVFAYAATQVFSAMNATQRLKGANYVLWGGREGYETLLNTDLRQEREQLGRFMRMVVEHKHKIGFKGDLLIEPKPQEPTKHQYDYDSATVFGFLQQYGLEKEIKVNIEANHATLAGHSFHHEIATAVSLGIFGSIDANRGDPQNGWDTDQFPNSVEEMTLATYEILKAGGFTNGGYNFDSKVRRQSLDEVDLFHGHVAAMDVLALALERAAAMVQNDKLQQFKDQRYAGWQQPFGKSLLAGEFSLESLAKHAFDKDLNPQAVSGRQELLEGVVNRFIYF
B2: Staphylococcus xylosus: xylose isomerase from donor organism Staphylococcus xylosus (protein, UniProt P27157 1-439, looked up)
Xylose isomerase: MSYFDINKVNYEGPKSNNAFSFKYYNPEEKLGNHSMSELLRFSVAYWHTFTADLSDPFGVGVAERDWDSLDEMEKAKARVEAIFEFMEKTRIDYFCFHDVDISPEGASLKESNENLDIIVELIKEKMDQTGKKLLWNTTNNFTHERFVHGAATSSNAEVFAYAAAKVKKSLEIAKKLGSENFVFWGGREGYESLLNTNMKLELDNLATFFKMAKSYADEIGYTGQFLIEPKPKEPTTHQYDTDVATAHAFLQKYDLDKDFKFNIEANHATLAGHTFQHELRYARDNNMLGSVDANQGHPLLGWDTDESTDVYDTTLAMYEILKNGGLAPGGLNFDAKPRRTSFKQEDLILTHIAGMDTFALGLRVAYKMIEDNFFENIMDEKYKSFNEGIGKKIVEGETSLKELEDYAFNINTINNTSDHLEVIKSQINQYILNINNKD
B3: Clostridium phytofermentans: xylose isomerase from donor organism Clostridium phytofermentans (protein)
chain: MKNYFPNVPEVKYEGPNSTNPFAFKYYDANKVVAGKTMKEHCRFALSWWHTLCAGGADPFGVTTMDRTYGNITDPMELAKAKVDAGFELMTKLGIEFFCFHDADIAPEGDTFEESKKNLFEIVDYIKEKMDQTGIKLLWGTANNFSHPRFMH
modifications: Clostridium phytofermentans
B4: Arabidopsis thaliana: xylose isomerase from donor organism Arabidopsis thaliana (protein, UniProt Q9FKK7 1-477, looked up)
Xylose isomerase: MKKVEFFMLLLCFIAASSLVSADPPTCPADLGGKCSDSDDWQGDFFPEIPKIKYEGPSSKNPLAYRWYNAEEEILGKKMKDWFRFSVAFWHTFRGTGGDPFGAATKYWPWEDGTNSVSMAKRRMRANFEFLKKLGVDWWCFHDRDIAPDGTTLEESNKNLDEVIELAKELQKGSKIKPLWGTAQLFLHPRYMHGGATSSEVGVYAYAAAQVKKAMEVTHYLGGENYVFWGGREGYQTLLNTDMGRELDHLARFFEAAVAYKKKIGFKGTLLIEPKPQEPTKHQYDWDAATAANFLRKYGLIDEFKLNIECNHATLSGHTCHHELETARINGLLGNIDANTGDAQTGWDTDQFLTDVGEATMVMMSVIKNGGIAPGGFNFDAKLRRESTDVEDLFIAHISGMDTMARGLRNAVKILEEGSLSELVRKRYATWDSELGKQIEEGKADFEYLEKKAKEFGEPKVSSAKQELAEMIFQSAM
B5: Clostridium thermosulfurogenes: xylose isomerase from donor organism Clostridium thermosulfurogenes (protein, UniProt P19148 1-439, looked up)
Xylose isomerase: MNKYFENVSKIKYEGPKSNNPYSFKFYNPEEVIDGKTMEEHLRFSIAYWHTFTADGTDQFGKATMQRPWNHYTDPMDIAKARVEAAFEFFDKINAPYFCFHDRDIAPEGDTLRETNKNLDTIVAMIKDYLKTSKTKVLWGTANLFSNPRFVHGASTSCNADVFAYSAAQVKKALEITKELGGENYVFWGGREGYETLLNTDMEFELDNFARFLHMAVDYAKEIGFEGQFLIEPKPKEPTKHQYDFDVANVLAFLRKYDLDKYFKVNIEANHATLAFHDFQHELRYARINGVLGSIDANTGDMLLGWDTDQFPTDIRMTTLAMYEVIKMGGFDKGGLNFDAKVRRASFEPEDLFLGHIAGMDAFAKGFKVAYKLVKDRVFDKFIEERYASYKDGIGADIVSGKADFRSLEKYALERSQIVNKSGRQELLESILNQYLFAE
B6: Bacillus licheniformis: xylose isomerase from donor organism Bacillus licheniformis (protein, UniProt P77832 1-448, looked up)
Xylose isomerase: MFFRNIGMIEYEGADSENPYAFKYYNPDEFVGGKTMKEHLRFAVAYWHTFDADGKDPFGDGTMFRAWNRLTHPLDKAKARAEAAFEFFEKLGVPYFCFHDVDIVDEGATLRETFTYLDQMSSFLKEMMETSHVQLLWNTANMFTHPRYVHGAATSCNADVYAYAAAKVKKGLDIAKELGAENYVFWGGREGYETLLNTDMKLELENLSSFYRMAVEYAREIGFDGQFLIEPKPKEPTKHQYDFDAATTIAFLETYGLKDHFKLNLEANHATLAGHTFEHELRVAALHDMLGSIDANQGDLLLGWDTDEFPTDLYSAVLAMYEILKAGGFKTGGINFDAKVRRPSFADEDLFHAHIAGMDTYAVGLKVASRLLEDKALDQVIEERYESYTKGIGLEIKEGRTDLKKLAAYALENDHIENQSGRQERLKATVNRYLLNALREAPAGKETH
B7: Bacillus subtilis: xylose isomerase from donor organism Bacillus subtilis (protein, UniProt P0CI80 1-445, looked up)
Xylose isomerase: MAQSHSSSINYFGSANKVVYEGKDSTNPLAFKYYNPQEVIGGKTLKEHLRFSIAYWHTFTADGTDVFGAATMQRPWDHYKGMDLAKMRVEAAFEMFEKLDAPFFAFHDRDIAPEGSTLKETNQNLDMIMGMIKDYMRNSGVKLLWNTANMFTNPRFVHGAATSCNADVFAYAAAQVKKGLETAKELGAENYVFWGGREGYETLLNTDLKFELDNLARFMHMAVDYAKEIGYTGQFLIEPKPKEPTTHQYDTDAATTIAFLKQYGLDNHFKLNLEANHATLAGHTFEHELRMARVHGLLGSVDANQGHPLLGWDTDEFPTDLYSTTLAMYEILQNGGLGSGGLNFDAKVRRSSFEPDDLIYAHIAGMDAFARGLKVAHKLIEDRVFEDVIQHRYRSFTEGIGLEIIEGRANFHTLEQYALNHKSIKNESGRQEKLKAILNQYILEV

In this assay the test system is engineered yeast (S. cerevisiae). Description: Heterologous xylose isomerase expression in yeast (active yes/no). Format: cell-based. The note with it: xylose isomerase of donor organism expressed in engineered yeast (S. cerevisiae).
In the case of “Actinoplanes missouriensis: xylose isomerase from donor organism Actinoplanes missouriensis”, the “Active? (yes/no)” value is given as “No”.

As to “Bacteroides thetaiotaomicron: xylose isomerase from donor organism Bacteroides thetaiotaomicron”, the “Active? (yes/no)” value was “Yes”.

For the molecule “Streptomyces diastaticus subsp diastaticus: xylose isomerase from donor organism Streptomyces diastaticus subsp diastaticus”, the “Active? (yes/no)” value is listed as “No”. As for “Streptomyces rubiginosus: xylose isomerase from donor organism Streptomyces rubiginosus”, the “Active? (yes/no)” value is given as “No”.

In the case of “Thermus thermophilus: xylose isomerase from donor organism Thermus thermophilus”, the “Active? (yes/no)” value is listed as “Yes”. Consider B1, for which the “Active? (yes/no)” value is reported as “No”. Consider B2, for which the “Active? (yes/no)” value is “No”. Under B3 stands “Yes”; under B4, “No”; under B5, “No”. Next, B6: “No”. Next, B7: “No”.
